Test results taken from paper PMC3167627.

Biological target: Mcm2WT-7 (Mcm2-7) (Saccharomyces cerevisiae, UniProt P29469;P24279;P30665;P29496;P53091;P38132 1-868;1-971;1-933;1-775;1-1017;1-845)
Experiment: EMSA

B1: poly-dT60 (ssDNA)
DNA: TTTTTTTTTTTTTTTTTTTTTTTTTTTTTTTTTTTTTTTTTTTTTTTTTTTTTTTTTTTT
binding result: binds
